Experimental data taken from patent US20030228309A1 (published 2003).

Experiments:
[1] = molecular target: T1, Biotinylated TRAIL (AM100200-Peprotech) (Homo sapiens (Human), UniProt P50591 114-281, biotinylated (sites not given)); test: competition ELISA, soluble TR4 (TR4-Fc positive control) competes with plate-captured TR4-Fc for biotinylated TRAIL; assay 1
Procedure: (§1) Goat anti-human Fc was diluted to 0.1 micrograms/ml in coating buffer. The Immulon 4 microplate was coated with 100 microliters per well of the Goat anti-human Fc solution and incubated overnight at 4° C. The coating solution was decanted from the plate, and blocking solution was dispensed at 200 microliters per well. The plate was incubated at room temperature for 1 hour. After the 1 hour incubation period, the blocking solution was decanted from the plate and 1 microgram/mL of TR4-Fc was dispensed at 100 microliters/well and incubated for 2 hours at room temperature. After the incubation, the plate was washed five times manually using a Wheaton manifold.
(§2) Hybridoma supernatants were (previously) prepared in a low binding dilution plate using diluent. The supernatants were prepared in duplicate and were diluted from the stock concentration with 2.5 fold dilutions for the 7 subsequent wells. If a purified form of the antibody was available, the starting concentration was 5 micrograms/mL. The positive control (TR4-Fc) was diluted from 5 micrograms/mL. 100 microliters was transferred into the ELISA plate and pre-incubated for 30 minutes at room temperature. 20 microliters of biotinylated TRAIL was added at 5 micrograms/mL to the 100 gL of the supernatant and mixed. The combined 120 microliters incubated for 2 hours at RT. […]

[2] = molecular target: T1, Biotinylated TRAIL (AM100200-Peprotech); test: competition ELISA, soluble TR4 (TR4-Fc positive control) competes with plate-captured TR4-Fc for biotinylated TRAIL; assay 2
Procedure: as §1, §2

T1 sequence (P50591 114-281 limits assumed): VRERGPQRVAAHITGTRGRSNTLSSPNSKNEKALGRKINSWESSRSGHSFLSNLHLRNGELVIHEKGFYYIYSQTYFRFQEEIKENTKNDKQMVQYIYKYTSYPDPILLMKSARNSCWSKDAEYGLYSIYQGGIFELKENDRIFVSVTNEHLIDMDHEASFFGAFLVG

B1: TR4-Fc fusion protein (Fc fusion)
chain: ATIKLHDQSIGTQQWEHSPLGELCPPGSHRSERPGACNRCTEGVGYTNASNNLFACLPCTACKSDEEERSPCTTTRNTACQCKPGTFRNDNSAEMCRKCSTGCPRGMVKVKDCTPWSDIECVHKESGNGHNI
notes: also called TR4 (in the form of Fc fusion protein); not shown: Fc region
Question: B1 was tested. Which IC50 [1] did it give?
Answer: 0.491 µg/mL

Question: And the IC50 [2]?
Answer: 0.284 µg/mL
